The values below come from publication PMC6202324, “C1GALT1 predicts poor prognosis and is a potential therapeutic target in head and neck cancer” (Oncogene, 2018).

In general, Kd refers to the equilibrium constant for the complex coming apart.

For test [1], the target named is EGFR from C1GALT1 knockdown HNSCC cells (human (endogenous in SAS and OEC-M1)) (UniProt P00533). Nature of the test: ELISA; ligand-binding assay: 100 µg lysate of SAS cells (siCtr or siC1GALT1-2, 72 h) incubated 18 h on plates coated with anti-EGFR antibody; biotin-EGF at different concentrations, 37 °C, 3 h; streptavidin-HRP, O.D. 490 nm; Kd estimated from Scatchard plot.

Test [2] addresses EGFR (endogenous, from control HNSCC cells) (human (endogenous in SAS and OEC-M1)) (UniProt P00533). The description is as above.
Test [3] concerns the target EGFR from C1GALT1 knockdown HNSCC cells (human (endogenous in SAS and OEC-M1)) (UniProt P00533). Nature of the test: ELISA; ligand-binding assay: 100 µg lysate of OEC-M1 cells (siCtr or siC1GALT1-2, 72 h) incubated 18 h on plates coated with anti-EGFR antibody; biotin-EGF at different concentrations, 37 °C, 3 h; streptavidin-HRP, O.D. 490 nm; Kd estimated from Scatchard plot.

For test [4], the target named is EGFR (endogenous, from control HNSCC cells) (human (endogenous in SAS and OEC-M1)) (UniProt P00533). The test is described as above.
The target in test [5] is C1GALT1 (Core 1 β1,3-galactosyltransferase) (Homo sapiens, UniProt Q9NS00). Nature of the test: cellular thermal shift assay (CETSA, western blot) in SAS and OEC-M1 cells; destabilization, dose-dependent. The format is cell-based. In general terms: A western blot detects proteins with antibodies after separation by electrophoresis.
Chain of C1GALT1 (Core 1 β1,3-galactosyltransferase) (Q9NS00 whole entry): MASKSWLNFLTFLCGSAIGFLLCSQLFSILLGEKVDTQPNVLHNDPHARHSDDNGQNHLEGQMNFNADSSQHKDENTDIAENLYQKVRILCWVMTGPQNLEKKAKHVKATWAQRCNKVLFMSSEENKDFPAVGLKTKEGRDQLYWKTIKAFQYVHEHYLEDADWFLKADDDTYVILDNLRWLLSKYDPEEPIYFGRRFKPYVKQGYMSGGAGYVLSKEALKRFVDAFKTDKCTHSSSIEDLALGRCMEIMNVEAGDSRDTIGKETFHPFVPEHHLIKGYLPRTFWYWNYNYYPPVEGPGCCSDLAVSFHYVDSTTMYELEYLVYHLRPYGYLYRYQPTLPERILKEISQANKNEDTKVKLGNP

For the compound Biotin-EGF (ligand), the equilibrium dissociation constant (Kd) in test [1] is 0.0423 µM; in test [2] it was 0.032 µM; in test [3], 0.0588 µM; in test [4], 0.0261 µM.
For `CCC(C)n1ncn(-c2ccc(N3CCN(c4ccc(OCC5COC(Cn6cncn6)(c6ccc(Cl)cc6Cl)O5)cc4)CC3)cc2)c1=O` (centres unmarked) [ITZ, itraconazole], in test [5], the “cellular thermal shift assay (CETSA, western blot) in SAS and OEC-M1 cells; dest” value is “melting temperature of C1GALT1 was decreased when SAS and OEC-M1 cells were treated with itraconazole”.
